How the values were obtained:
Tfam WT (mature) [1] = target: T1, Tfam WT (mature) (Homo sapiens, UniProt Q00059 43-246); assay: intrinsic Trp fluorescence quenching
T1 sequence: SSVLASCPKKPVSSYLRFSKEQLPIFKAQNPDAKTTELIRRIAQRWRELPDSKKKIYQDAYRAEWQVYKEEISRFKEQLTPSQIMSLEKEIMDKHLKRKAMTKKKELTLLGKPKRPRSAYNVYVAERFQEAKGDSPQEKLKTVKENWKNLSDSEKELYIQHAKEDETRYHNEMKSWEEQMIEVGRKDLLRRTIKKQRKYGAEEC

Tfam HMG-box B = target: T2, Tfam HMG-box B (Homo sapiens, UniProt Q00059 153-222); assay: intrinsic Trp fluorescence quenching
T2 sequence: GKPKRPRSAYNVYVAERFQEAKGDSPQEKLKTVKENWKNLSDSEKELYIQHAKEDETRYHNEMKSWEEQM

Tfam L6 [2] = target: T3, Tfam L6 (Homo sapiens, UniProt Q00059 43-246, K136A;H137A;K139A;R140A;K146A;K147A); assay: intrinsic Trp fluorescence quenching
T3 sequence: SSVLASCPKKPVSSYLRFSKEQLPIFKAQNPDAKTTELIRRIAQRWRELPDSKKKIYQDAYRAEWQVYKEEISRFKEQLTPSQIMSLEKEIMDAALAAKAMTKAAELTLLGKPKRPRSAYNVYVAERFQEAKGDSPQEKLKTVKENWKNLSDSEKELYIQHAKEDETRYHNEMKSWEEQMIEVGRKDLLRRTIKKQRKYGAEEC

Tfam T77A [3] = target: T4, Tfam T77A (Homo sapiens, UniProt Q00059 43-246, T77A); assay: intrinsic Trp fluorescence quenching
T4 sequence: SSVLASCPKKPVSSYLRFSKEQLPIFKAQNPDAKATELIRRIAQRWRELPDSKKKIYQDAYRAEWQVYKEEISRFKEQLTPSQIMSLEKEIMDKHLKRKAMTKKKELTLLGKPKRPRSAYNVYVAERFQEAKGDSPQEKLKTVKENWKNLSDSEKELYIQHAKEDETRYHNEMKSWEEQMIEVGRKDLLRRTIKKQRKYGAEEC

Tfam HMG-box A = target: T5, Tfam HMG-box A (Homo sapiens, UniProt Q00059 43-122); assay: intrinsic Trp fluorescence quenching
T5 sequence: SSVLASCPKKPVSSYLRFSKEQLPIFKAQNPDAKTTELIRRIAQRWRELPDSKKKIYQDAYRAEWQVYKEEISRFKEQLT

Tfam Y162A [4] = target: T6, Tfam Y162A (Homo sapiens, UniProt Q00059 43-246, Y162A); assay: intrinsic Trp fluorescence quenching
T6 sequence: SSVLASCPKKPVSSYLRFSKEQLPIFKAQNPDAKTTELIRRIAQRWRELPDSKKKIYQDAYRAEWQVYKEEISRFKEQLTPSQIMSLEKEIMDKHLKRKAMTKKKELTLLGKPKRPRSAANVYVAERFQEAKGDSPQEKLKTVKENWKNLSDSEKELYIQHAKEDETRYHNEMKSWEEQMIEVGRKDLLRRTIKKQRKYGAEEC

Tfam WT (mature) [5] = target: T1, Tfam WT (mature); assay: FRET bending
Tfam L6 [6] = target: T3, Tfam L6; assay: FRET bending
Tfam T77A [7] = target: T4, Tfam T77A; assay: FRET bending
Tfam Y162A [8] = target: T6, Tfam Y162A; assay: FRET bending

B1: LSP 28 bp (dsDNA)
DNA 1: TGTTAGTTGGGGGGTGACTGTTAAAAGT
DNA 2: ACTTTTAACAGTCACCCCCCAACTAACA
Binder B1 has a Kd (Tfam WT (mature) [1]) of 6 ± 0.9 nM, a Kd (Tfam HMG-box B) of 411 ± 46 nM and a Kd (Tfam L6 [2]) of 10.1 ± 1.2 nM. The Kd (Tfam T77A [3]) was 7.6 ± 1.1 nM, the Kd (Tfam HMG-box A) was 6.5 ± 1.2 nM and the Kd (Tfam Y162A [4]) was 12.3 ± 1.8 nM.

B2: LSP 28 bp Cy3/Cy5 (dsDNA)
DNA 1: TGTTAGTTGGGGGGTGACTGTTAAAAGT
DNA 2: ACTTTTAACAGTCACCCCCCAACTAACA
In the case of B2, the binding signal (Tfam WT (mature) [5]) is reported as 36.5 ± 0.8 % FRET efficiency, the binding signal (Tfam L6 [6]) is reported as 26.1 ± 0.6 % FRET efficiency and the binding signal (Tfam T77A [7]) is reported as 31.4 ± 0.2 % FRET efficiency. The binding signal (Tfam Y162A [8]) was 29.4 ± 0.6 % FRET efficiency.

Source: PMC3210390
